In test [1] the target is T1, I53_dn5B trimer.
T1 chain: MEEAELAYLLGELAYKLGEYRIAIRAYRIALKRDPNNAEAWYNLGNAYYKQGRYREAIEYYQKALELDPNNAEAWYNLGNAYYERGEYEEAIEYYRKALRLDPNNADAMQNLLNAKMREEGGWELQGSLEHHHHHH
The test can be described thus: in vitro nanoparticle assembly, SEC and SDS-PAGE.

Test [2] deals with T1, I53_dn5B trimer. The experiment in a line: nanoparticle assembly grade, Table 3.
Test [3] addresses T2, I53_dn5B_2gly trimer (N-linked glycans at PNGS 32-YDNLT-36 and 89-NAT-91).
T2 chain: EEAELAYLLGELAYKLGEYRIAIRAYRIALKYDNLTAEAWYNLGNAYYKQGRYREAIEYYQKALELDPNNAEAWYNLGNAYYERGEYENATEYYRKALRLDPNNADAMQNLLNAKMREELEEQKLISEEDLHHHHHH
The test can be described thus: in vitro nanoparticle assembly, SEC and SDS-PAGE.

B1: I53_dn5A_1C5kPEG pentamer (designed binder)
chain: MGKYDGSKLRIGILHARGNAEIILALVLGALKRLQEFGVKRENIIIETVPGSFELPYGSKLFVEKQKRLGKPLDAIIPIGVLIRGSTPHFDYIADSTTHQLMKLNFELGIPVIFGVITADTCEQAEARAGLIEGKMHNHGEDWGAAAVEMATKFNGGWELQLEGSHHHHHH
Take B1: the binding result in test [1] is “binds”.

B2: I53_dn5A_2gly pentamer (designed binder)
chain: KYDGSKLRIGILHARGNAEIILELVLGALKRLQEFGVKRENIIIETVPGSFELPYGSKLFVEKQKRLGKPLDAIIPIGVLIRGNDTHFDYIADSTTHQLMKLNFELGIPVIFGVLTTNSTEQAEERAGTKAGNHGEDWGAAAVEMATKFNLEEQKLISEEDLHHHHHH
B2: the binding result in test [2] and in test [3] was “binds” throughout.

For the origin of these results see patent US20240042018A1 (University of Washington, published 2024).
